In article doi:10.1101/2023.01.02.522444 (bioRxiv, 2023):

Legend:
Isw1 (residues 69-1129) = Isw1 (residues 69-1129) (S. cerevisiae, UniProt P38144 69-1129); experiment: cryo-EM structure
[1] = target: histone H4 (Xenopus), in the nucleosome (Xenopus, UniProt P62799 1-103); experiment: cryo-EM structure

Isw1 (residues 69-1129), sequence (P38144 69-1129): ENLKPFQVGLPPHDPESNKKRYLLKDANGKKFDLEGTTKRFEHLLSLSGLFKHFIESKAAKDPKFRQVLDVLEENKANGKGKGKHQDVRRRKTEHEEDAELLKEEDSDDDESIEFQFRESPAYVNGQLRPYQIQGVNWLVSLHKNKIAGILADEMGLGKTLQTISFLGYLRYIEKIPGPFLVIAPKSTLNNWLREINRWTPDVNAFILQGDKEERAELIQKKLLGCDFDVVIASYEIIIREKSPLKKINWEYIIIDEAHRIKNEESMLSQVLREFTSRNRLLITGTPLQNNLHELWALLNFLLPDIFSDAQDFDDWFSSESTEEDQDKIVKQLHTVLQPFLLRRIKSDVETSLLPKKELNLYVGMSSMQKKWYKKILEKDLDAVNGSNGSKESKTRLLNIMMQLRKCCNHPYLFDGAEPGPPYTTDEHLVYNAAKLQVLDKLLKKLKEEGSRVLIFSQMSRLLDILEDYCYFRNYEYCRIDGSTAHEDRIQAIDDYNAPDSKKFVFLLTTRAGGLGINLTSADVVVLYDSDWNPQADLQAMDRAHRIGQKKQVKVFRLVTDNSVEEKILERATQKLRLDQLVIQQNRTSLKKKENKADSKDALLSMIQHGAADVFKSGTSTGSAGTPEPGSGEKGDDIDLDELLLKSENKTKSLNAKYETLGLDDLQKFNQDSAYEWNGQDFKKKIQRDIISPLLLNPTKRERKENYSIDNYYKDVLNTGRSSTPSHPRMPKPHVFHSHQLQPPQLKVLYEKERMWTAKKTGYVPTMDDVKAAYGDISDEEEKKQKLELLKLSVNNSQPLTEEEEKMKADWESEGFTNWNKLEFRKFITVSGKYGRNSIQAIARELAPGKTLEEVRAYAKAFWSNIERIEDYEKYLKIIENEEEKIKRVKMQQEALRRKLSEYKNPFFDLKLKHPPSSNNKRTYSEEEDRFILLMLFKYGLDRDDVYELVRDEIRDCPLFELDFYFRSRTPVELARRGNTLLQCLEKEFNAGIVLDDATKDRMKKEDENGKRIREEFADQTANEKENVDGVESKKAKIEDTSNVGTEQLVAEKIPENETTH

B1: Ioc3 (residues 127-749) (domain or fragment)
chain: VAPKPKPAHEQVEPALIPSNWTSVIPLLTSDFKNQYSVISRLKNPNMKPVPYAGDIIKLMAFINKFSSFFHSDLQNLSFQDFEVGLDLYPGDPNGSAAGIVKGPEDTSLLLYPDFMAIKDIVYCQDKMNLLFLSLLDLTFTENFDGKSAKKKGPLTTWENLKSSSKKVFSNPLYRLRLVAREWGYPREWRQQLPSDQDISKPKTALFEQDEQTPVVDPSHPEILTPNIYTWNANEPLPLESNPLYNREMDKNGILALKPMDRVVLLRALTDWCASHSSAIHDEIYKLTHGKKDPVFGIQTQQVPRYTIEGVDNTINQFKKLCSLIQSRYEIRSKKKHFVKQLKEGKKPDLSRKLEILKEIKAELKNAVKSEKDELLFSLYDKWVPLFEGELPDQPLANPFSERLYKLRLQEFFLGRVPHIGDFYMPRLHSYGDSLEMSTFTDLRNLQALLSKFKNNEYNAFTLFENDGQSMSAQFKLFYHDTPSLAHDVARGRNTSGKVYWYELCHDSATLLEFLEFLDYKIVKPQDEKKEGNEKEKEALNNEAHILEQKSTTDNNPSINTNPLPKDAKYNTARKKLQILKEFLSDYYFILRQFEQMKVQFADMKPGKRQLRRIQRQTVNYNT
Question: Does B1 bind (Isw1 (residues 69-1129))?
Answer: binds

Question: Does B1 bind [1]?
Answer: binds
